The source of these data is paper PMC8765430, “MdaB and NfrA, Two Novel Reductases Important in the Survival and Persistence of the Major Enteropathogen Campylobacter jejuni” (Journal of Bacteriology, 2022).

One data set addresses T1, NfrA (NfrAhis6) (Campylobacter jejuni, UniProt Q0P871).
T1 construct: gene Cj1555c; recombinant His6-tagged (pET21a+), E. coli BL21(DE3), Ni-NTA
Put plainly: NADPH oxidation at […] nm. Type of data set: biochemical. To be noted: riboflavin as acceptor; pH ~7.5.

A further data set concerns the target T2, MdaB (MdaBhis6) (Campylobacter jejuni, UniProt Q0P880).
T2 construct: gene Cj1545c; recombinant His6-tagged (pET21a+), E. coli BL21(DE3), Ni-NTA
Description: NADPH oxidation at […] nm. Type of data set: biochemical. The conditions noted are these: 0.2 mM quinone substrates; 200 μM NADPH; 50 mM Tris-HCl, 100 mM NaCl, 10% DMSO; pH ~7.5; 37°C; anaerobic.

Data set [1] has as its target T3, RrpB (Campylobacter jejuni, UniProt Q0P870 1-110).
T3 sequence: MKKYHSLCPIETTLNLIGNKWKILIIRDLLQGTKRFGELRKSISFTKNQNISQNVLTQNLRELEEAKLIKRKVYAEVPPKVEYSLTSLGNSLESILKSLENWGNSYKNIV
Description: EMSA; DTT (higher complex); EMSA: Odyssey infrared EMSA kit, 50 nM probe, 20 ul, 6% gel at 4 C. Footprinting: 10 mM Tris-HCl pH 8.5, 30 mM K-glutamate, 1 mM DTT, 5 mM Mg acetate, 2 mM CaCl2, 0.125 mg/ml BSA, 30% glycerol, 25 C. The conditions noted are these: protein: recombinant; tags: C-terminal His6 (pET21a); chain copies: 2; label: 5' IRDye 800.

The target in data set [2] is T3, RrpB. Put plainly: EMSA; EMSA: Odyssey infrared EMSA kit, 50 nM probe, 20 ul, 6% gel at 4 C. Footprinting: 10 mM Tris-HCl pH 8.5, 30 mM K-glutamate, 1 mM DTT, 5 mM Mg acetate, 2 mM CaCl2, 0.125 mg/ml BSA, 30% glycerol, 25 C. The conditions noted are these: protein: recombinant; tags: C-terminal His6 (pET21a); chain copies: 2.
The target in data set [3] is T4, RrpA (Campylobacter jejuni, UniProt Q0P879 1-115).
T4 sequence: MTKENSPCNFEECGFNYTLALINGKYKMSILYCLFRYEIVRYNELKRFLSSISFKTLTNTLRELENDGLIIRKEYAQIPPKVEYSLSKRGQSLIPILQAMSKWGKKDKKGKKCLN
Described as above. The conditions noted are these: protein: recombinant; tags: C-terminal His6 (pET21a); chain copies: 2.

The target of data set [4] is T4, RrpA. Description: EMSA; 0.05 ug protein, 50 nM DNA; EMSA: Odyssey infrared EMSA kit, 50 nM probe, 20 ul, 6% gel at 4 C. Footprinting: 10 mM Tris-HCl pH 8.5, 30 mM K-glutamate, 1 mM DTT, 5 mM Mg acetate, 2 mM CaCl2, 0.125 mg/ml BSA, 30% glycerol, 25 C. To be noted: protein: recombinant; tags: C-terminal His6 (pET21a); chain copies: 2; label: 5' IRDye 800.

T2 sequence (Q0P880 entry or part of it): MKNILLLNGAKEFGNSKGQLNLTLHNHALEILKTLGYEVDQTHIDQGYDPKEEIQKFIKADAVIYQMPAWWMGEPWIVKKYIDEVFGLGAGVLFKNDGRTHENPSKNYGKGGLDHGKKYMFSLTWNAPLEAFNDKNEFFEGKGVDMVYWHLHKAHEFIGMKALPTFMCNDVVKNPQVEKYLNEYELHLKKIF
T1 sequence (Q0P871 entry or part of it): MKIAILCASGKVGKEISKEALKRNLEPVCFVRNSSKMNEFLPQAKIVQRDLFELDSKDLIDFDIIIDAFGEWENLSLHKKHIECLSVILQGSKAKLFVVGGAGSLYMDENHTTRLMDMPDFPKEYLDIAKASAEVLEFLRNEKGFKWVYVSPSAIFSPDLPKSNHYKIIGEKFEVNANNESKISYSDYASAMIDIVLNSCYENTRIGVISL

On to `NC(=O)C1=CN([C@@H]2O[C@H](COP(=O)(O)OP(=O)(O)OC[C@H]3O[C@@H](n4cnc5c(N)ncnc54)[C@H](OP(=O)(O)O)[C@@H]3O)[C@@H](O)[C@H]2O)C=CC1` [NADPH], for which the specific activity result is listed as “This was indicative of NfrA’s preference for NADPH over NADH” at NfrA (NfrAhis6) and “reductase activity of MdaB was determined by monitoring the oxidation of NADPH” at MdaB (MdaBhis6).

B1: nfrAprobe (dsDNA)
DNA 1: TAGATCTTTAATATTTATATAAATGATGATTTTTAGTTCATCTATAATAAAATATTATATCA
DNA 2: TGATATAATATTTTATTATAGATGAACTAAAAATCATCATTTATATAAATATTAAAGATCTA
As to B1, the binding result with RrpB [1] is listed as “binds”.

B2: rrpB (-2) (dsDNA)
DNA 1: TTAAAAAATATGCGGATCTTTTAAAAAATAAGGATCGGATCTGAAAAAATAT
DNA 2: ATATTTTTTCAGATCCGATCCTTATTTTTTAAAAGATCCGCATATTTTTTAA
In the case of B2, the binding result with RrpB [2] is listed as “no binding”.

B3: rrpA WT (Fig. S1) (dsDNA)
DNA 1: GCATATAATATCATTTTCAATACAGAAAATAAAGTAATATACTATACTAAAGGAATGTTAAATGA
DNA 2: TCATTTAACATTCCTTTAGTATAGTATATTACTTTATTTTCTGTATTGAAAATGATATTATATGC
For B3, the binding result with RrpA [3] is given as “binds”.

B4: mdaBprobe (dsDNA)
DNA 1: AAATTTAAAATACTATGTTAATATTGAATCGTATTATAGTAAAAGTT
DNA 2: AACTTTTACTATAATACGATTCAATATTAACATAGTATTTTAAATTT
As to B4, in the data set with RrpA [4], the binding result is “binds”.

B5: rrpAprobe (dsDNA)
DNA 1: GCATAATATCATTTTCAATACAGAAAATAAAGTAATATACTATACTAAAGGAATGTTAAATGA
DNA 2: TCATTTAACATTCCTTTAGTATAGTATATTACTTTATTTTCTGTATTGAAAATGATATTATGC
With B5, in the data set with RrpA [4], the binding result was “binds”.

B6: rrpA (-1) (dsDNA)
DNA 1: GCATAATATCATTTTCAATACAGAAAATAAAGTAATATCGAGCACTAAAGGAATGTTAAATGA
DNA 2: TCATTTAACATTCCTTTAGTGCTCGATATTACTTTATTTTCTGTATTGAAAATGATATTATGC
B6: the binding result in the data set with RrpA [3] was “binds”.

B7: rrpA (-2) (dsDNA)
DNA 1: GCATAATCGAGCTTTCAATACAGAAAATAAAGTAATATCGAGCACTAAAGGAATGTTAAATGA
DNA 2: TCATTTAACATTCCTTTAGTGCTCGATATTACTTTATTTTCTGTATTGAAAGCTCGATTATGC
Turning to B7, in the data set with RrpA [3], the binding result is on record as “no binding”.

B8: rrpBprobe (rrpB WT) (dsDNA)
DNA 1: TTAAAAAATATGTTATAATTTTAAAAAATAAGGATTTATAATGAAAAAATAT
DNA 2: ATATTTTTTCATTATAAATCCTTATTTTTTAAAATTATAACATATTTTTTAA
Turning to B8, the binding result in the data set with RrpB [1] is “binds”.

B9: rrpB (-1) (dsDNA)
DNA 1: TTAAAAAATATGTTATAATTTTAAAAAATAAGGATCGGATCTGAAAAAATAT
DNA 2: ATATTTTTTCAGATCCGATCCTTATTTTTTAAAATTATAACATATTTTTTAA
As for B9, the binding result with RrpB [2] was “binds”.
